US20090130710A1, “Enhancing vegetative protein production in transgenic plants using seed specific promoters” (priority 2005, published 2009)

B1: IDUA derived from transgenic WT seeds: recombinant human α-L-iduronidase purified from transgenic Arabidopsis wild-type T3 seeds (protein, UniProt P35475 28-653, looked up)
Alpha-L-iduronidase: APHLVHVDAARALWPLRRFWRSTGFCPPLPHSQADQYVLSWDQQLNLAYVGAVPHRGIKQVRTHWLLELVTTRGSTGRGLSYNFTHLDGYLDLLRENQLLPGFELMGSASGHFTDFEDKQQVFEWKDLVSSLARRYIGRYGLAHVSKWNFETWNEPDHHDFDNVSMTMQGFLNYYDACSEGLRAASPALRLGGPGDSFHTPPRSPLSWGLLRHCHDGTNFFTGEAGVRLDYISLHRKGARSSISILEQEKVVAQQIRQLFPKFADTPIYNDEADPLVGWSLPQPWRADVTYAAMVVKVIAQHQNLLLANTTSAFPYALLSNDNAFLSYHPHPFAQRTLTARFQVNNTRPPHVQLLRKPVLTAMGLLALLDEEQLWAEVSQAGTVLDSNHTVGVLASAHRPQGPADAWRAAVLIYASDDTRAHPNRSVAVTLRLRGVPPGPGLVYVTRYLDNGLCSPDGEWRRLGRPVFPTAEQFRRMRAAEDPVAAAPRPLPAGGRLTLRPALRLPSLLLVHVCARPEKPPGQVTRLRALPLTQGQLVLVWSDEHVGSKCLWTYEIQFSQDGKAYTPVSRKPSTFNLFVFSPDTGAVSGSYRVRALDYWARPGPFSDPVPYLEVPVPRGPPSPGNP
modifications: made in Arabidopsis seeds
B2: IDUA derived from transgenic cg/mutant seeds: recombinant human α-L-iduronidase purified from transgenic Arabidopsis cgl mutant seeds (N-acetylglucosaminyl transferase I deficient) (protein, UniProt P35475 28-653, looked up)
Alpha-L-iduronidase: B1 Alpha-L-iduronidase
modifications: made in Arabidopsis cgl mutant seeds

How the values were obtained:
[1] = test system: transgenic tobacco leaves co-expressing ABI3 and α-L-iduronidase; assay: IDUA activity in leaves of tobacco co-transformants incubated on culture media with ABA or stress chemicals; type: cell-based
Procedure: FIG. 6. Use of ABA to enhance human α-L-iduronidase activity in plants co-expressing ABI3 and α-L-iduronidase.
FIG. 10. The effects of different treatments designed to enhance endogenous ABA levels on human α-L-iduronidase activities. Leaves of selected tobacco co-transformants (plants co-expressing constructs a and c [Arc-IDUA/ABI3] and plants co-expressing constructs a and d [Arc-IDUA-KDEL/ABI3]) were incubated for 6 days in media containing the following chemicals: (1) polyethylene glycol, PEG; (2) mM NaCl; (3) mM sucrose; (4) mM mannitol, or the leaves were kept on medium at 4 degrees celsius.
(§1) Stably transformed plants were cultured in magenta boxes at 25° C. and sub-cultured every 3 months. Healthy, fully expanded leaves from 4-week plants were used in the present study.

[2] = test system: tobacco leaves co-expressing Arc-IDUA/ABI3 or Arc-IDUA-KDEL/ABI3; assay: Western blot of α-L-iduronidase protein in tobacco co-transformant leaves; type: cell-based; conditions: day 6 of incubation; Arc-IDUA/ABI3 and Arc-IDUA-KDEL/ABI3 leaves
Procedure: FIG. 9. Western blot showing the effects of ABA at different concentrations of the levels of human α-L-iduronidase protein at day 6 of incubation. As with the activity data (FIG. 7), leaves of selected tobacco co-transformants (plants co-expressing constructs a and c [Arc-IDUA/ABI3] and plants co-expressing constructs a and d [Arc-IDUA-KDEL/ABI3]) incubated for 6 days in increasing concentrations of S(+)-ABA, show the maximum α-L-iduronidase protein accumulation levels at 150 μM S(+)-ABA.

[3] = test system: tobacco leaves co-expressing Arc-IDUA/ABI3 or Arc-IDUA-KDEL/ABI3; assay: Northern blot analysis of α-L-iduronidase mRNA in tobacco co-transformant leaves; type: cell-based; conditions: 100 μM S(+)-ABA, 6 days, compared to leaves in culture without ABA
From the text: FIG. 8. ABA acts at the transcriptional level to enhance the levels of human α-L-iduronidase.

[4] = test system: transgenic tobacco leaves co-expressing construct (a) (the CnABI3 gene) and construct (b) (encoding GUS); assay: GUS activity in transgenic tobacco leaves co-expressing CnABI3 and Vic-GUS; type: cell-based; conditions: increasing concentration of natural ABA up to 200 μM
Procedure: FIG. 4. Effect of natural S-(+)-ABA on recombinant bacterial β-glucuronidase (GUS) activities in transgenic tobacco leaves co-expressing construct (a) (the CnABI3 gene) and construct (b) (encoding GUS). […] There is a greater enhancement of GUS activities, with an increasing concentration of natural ABA up to 200 μM.
Transgenic tobacco plants were also generated by co-expressing the CnABI3 gene (construct a) and a gene construct containing the bacterial GUS gene coding region linked to a seed storage protein gene promoter—the vicilin gene promoter (construct b of FIG. 3) (Jiang et al., 1995).
as §1

[5] = target: T1, α-L-iduronidase (IDUA) activity (Homo sapiens, UniProt P35475); assay: IDUA specific activity after purification from transgenic Arabidopsis seeds (4MU formation); type: biochemical; conditions: for Units/mg (specific activity): units are nmoles 4MU formed per minute
T1 construct: arcelin-5-I (ARC5-I) signal peptide of Phaseolus vulgaris (N); made in house; host or cells: transgenic Arabidopsis thaliana T3 seeds (wild type and cgl mutant)
T1 sequence (P35475 28-653): B1 Alpha-L-iduronidase
From the text: Table 1. Specific activities of Arabidopsis-derived α-L-iduronidase following purification of the recombinant enzyme from T3 seeds using a modified three-column procedure developed for extraction from human liver (Clements et al., 1989).

[6] = step Ab: combined elution fractions from antibody column
[7] = step BGel: combined elution fractions from Bio-Gel P100 column
[8] = step ConA: combined elution fractions from concanavalin A/Sepharose column
[9] = step Crude: clarified lysate (lipid removed)

| Molecule | Units/mg (specific activity) [5, 6] | Units/mg (specific activity) [5, 7] | Units/mg (specific activity) [5, 8] [Units/mg] | Units/mg (specific activity) [5, 9] [Units/mg] | other results |
| --- | --- | --- | --- | --- | --- |
| [Cl-].[Na+] [NaCl] |  |  |  |  | effect on α-L-iduronidase activities of treatments designed to enhance endogenous ABA levels ([1]; 6 days incubation, compared to ABA control (150 μM S(+)-ABA), NaCl 240 mM or 300 mM): dramatic effectiveness in enhancing α-L-iduronidase activities |
| CC1=CC(=O)CC(C)(C)[C@@]1(O)/C=C/C(C)=C\C(=O)O [ABA, S-(+)-ABA] |  |  |  |  | ABA concentration at which α-L-iduronidase activities reach a maximum ([1]; 6 days incubation in increasing concentrations, Arc-IDUA/ABI3 and Arc-IDUA-KDEL/ABI3 leaves): 150 µM; IDUA activities in leaves ([1]; ABA-treated leaves co-expressing ABI3 and IDUA-KDEL, 7 days of incubation): ≤ 16,000 pmol min^−1 mg^−1; enhancement of α-L-iduronidase activity versus transgenic control leaves (no ABA) ([1]; S(+)-ABA at 80 μM, day 7 of incubation, leaves co-expressing constructs a and d (Arc-IDUA-KDEL/ABI3)): ~58 fold; ABA concentration showing maximum α-L-iduronidase protein accumulation levels [2]: 150 µM; effect on steady-state mRNA levels encoding α-L-iduronidase [3]: enhanced steady-state mRNA levels; effect on recombinant GUS activities [4]: enhanced GUS activities |
| B1 | 9,033 Units/mg | 14,700 Units/mg | 29 | 6.3 | specific activity of the enzyme ([5]; following chromatography on Bio-Gel P-100, purified from T3 seeds): 14,700 nmol 4 MU/min/mg TSP |
| B2 | 2,700 Units/mg | 7,800 Units/mg | 8 | 2.04 |  |
